Measurements reported in publication PMC10397247.

Tests used:
Test in all cases: two-hybrid library CCNG1;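 note: natural log of median RNA to DNA barcode read ratio; higher means stronger binding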
4H1449-bN = molecular target: T1, 4H1449-bN
T1 chain: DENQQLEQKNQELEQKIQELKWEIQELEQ

4H1544-bN = molecular target: T2, 4H1544-bN
T2 chain: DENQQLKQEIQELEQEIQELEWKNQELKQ

4H1629-bN = molecular target: T3, 4H1629-bN
T3 chain: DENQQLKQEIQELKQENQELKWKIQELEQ

4H1710-bN = molecular target: T4, 4H1710-bN
T4 chain: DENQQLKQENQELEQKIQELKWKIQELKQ

4H1804-bN = molecular target: T5, 4H1804-bN
T5 chain: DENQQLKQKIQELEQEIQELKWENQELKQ

4H1899-bN = molecular target: T6, 4H1899-bN
T6 chain: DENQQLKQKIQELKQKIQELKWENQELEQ

4H1985-bN = molecular target: T7, 4H1985-bN
T7 chain: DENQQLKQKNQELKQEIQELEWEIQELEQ

4H3129-bN = molecular target: T8, 4H3129-bN
T8 chain: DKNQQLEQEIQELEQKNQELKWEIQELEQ

4H3172-bN = molecular target: T9, 4H3172-bN
T9 chain: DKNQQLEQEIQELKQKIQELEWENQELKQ

4H3414-bN = molecular target: T10, 4H3414-bN
T10 chain: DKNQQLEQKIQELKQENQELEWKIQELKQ

4H3613-bN = molecular target: T11, 4H3613-bN
T11 chain: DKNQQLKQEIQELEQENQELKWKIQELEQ

4H3628-bN = molecular target: T12, 4H3628-bN
T12 chain: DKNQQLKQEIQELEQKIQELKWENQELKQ

4H3631-bN = molecular target: T13, 4H3631-bN
T13 chain: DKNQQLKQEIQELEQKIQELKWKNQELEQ

4H3638-bN = molecular target: T14, 4H3638-bN
T14 chain: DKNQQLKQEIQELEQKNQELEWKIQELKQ

4H3817-bN = molecular target: T15, 4H3817-bN
T15 chain: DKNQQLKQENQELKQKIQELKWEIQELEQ

4H3858-bN = molecular target: T16, 4H3858-bN
T16 chain: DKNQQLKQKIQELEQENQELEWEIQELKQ

4H3974-bN = molecular target: T17, 4H3974-bN
T17 chain: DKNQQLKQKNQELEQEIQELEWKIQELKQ

4H570-bN = molecular target: T18, 4H570-bN
T18 chain: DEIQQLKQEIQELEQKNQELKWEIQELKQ

4H584-bN = molecular target: T19, 4H584-bN
T19 chain: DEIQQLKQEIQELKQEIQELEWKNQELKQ

4H619-bN = molecular target: T20, 4H619-bN
T20 chain: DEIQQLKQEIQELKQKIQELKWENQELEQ

4H850-bN = molecular target: T21, 4H850-bN
T21 chain: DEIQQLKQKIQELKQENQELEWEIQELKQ

4H906-bN = molecular target: T22, 4H906-bN
T22 chain: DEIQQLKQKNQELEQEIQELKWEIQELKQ

4H2586-bN = molecular target: T23, 4H2586-bN
T23 chain: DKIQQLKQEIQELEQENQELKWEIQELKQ

4H2839-bN = molecular target: T24, 4H2839-bN
T24 chain: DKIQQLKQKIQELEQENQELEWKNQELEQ

Binder	interaction score (4H1629-bN)	interaction score (4H1710-bN)	interaction score (4H1804-bN)	interaction score (4H1985-bN)	interaction score (4H3129-bN)	interaction score (4H3172-bN)	interaction score (4H3414-bN)	interaction score (4H3631-bN)	interaction score (4H3638-bN)	interaction score (4H3817-bN)	interaction score (4H3974-bN)	interaction score (4H570-bN)	interaction score (4H584-bN)	interaction score (4H619-bN)	interaction score (4H850-bN)	interaction score (4H906-bN)	also measured
DENQQLEQKNQELEQKIQELKWEIQELEQ [4H1449-bN]	-0.745	-0.246	-2.5	-1.29	-2.48	-0.588	-0.742	-0.391	-1.08	-1.76	1.15	-0.581	-0.471	-0.984	-1.83	-1.69	interaction score (4H1449-bN): -0.847; interaction score (4H1544-bN): -1.72; interaction score (4H1899-bN): -0.773; interaction score (4H3613-bN): -1.42; interaction score (4H3628-bN): -0.461; interaction score (4H3858-bN): -0.776
DENQQLKQEIQELKQENQELKWKIQELEQ [4H1629-bN]	1.42	-0.768	-2.35	-0.575	-0.732	-0.119	-0.735	-0.59	-1.43	-2.51	-0.785	-2.4	-0.0341	-0.476	-0.949	-1.39	interaction score (4H2586-bN): -1.65; interaction score (4H2839-bN): -1.72
